Results published in the Human Domainome abundance scans (Beltran et al. 2025).

B1: Serine/threonine-protein kinase LATS1, residues 98 to 141; numbered along this chain, O95835 (parent)
chain: TSEVNPQMLQDLQAAGFDEDMVIQALQKTNNRSIEAAIEFISKM

Variants of: B1
Assay: abundance fitness (aPCA) (normalised: wild type 0, dead -1); higher = more abundant; growth selection in yeast, the domain comes from the species named
Conditions: Homo sapiens

Abundance fitness: each site, then its substitutions
P6: M 0.005, W -0.201, Q 0.081, L -0.13, D 0.007, K 0.101, V -0.032, F -0.115, C -0.219, Y -0.119, G -0.048, H -0.001, E 0.07, R 0.039, N 0.249, A 0.037, S -0.052
V22: H -0.618, G -0.008, E -0.355, C 0.11, A 0.18, F -0.807
M8: Y -0.151, L -0.203, A -0.525, P -0.717, K -0.485, G -0.583, W -0.208, Q -0.541, I -0.431, R -0.597, S -0.543, V -0.508, D -0.419, C -0.778, F -0.162, H -0.244, T -0.447
E19: A -0.097, R 0.078, G -0.103, W -0.75, Q -0.012, P -0.104, D -0.154, V -0.17, L -0.26, M -0.228, T 0.046, K 0.08, C -0.218, N -0.233, S -0.035, F -0.31
D18: Q -0.077, V -0.597, N -0.21, R -0.22, F -0.564, S -0.169, M -0.59, L -0.617, Y -0.837, P -0.113, A -0.032, T -0.204, K -0.117, E 0.036, H -0.159, G -0.169, W -0.853, C -0.187
M21: D 0.023, R -0.268, A -0.019, C -0.126, Q 0.077, G -0.363, E 0.043, W -0.32, L 0.032, Y -0.33, V 0.059, T 0.088, F -0.291, S -0.038, H -0.294, N -0.148, P -0.491, K -0.059
L9: A 0.004, Y -0.421, K 0.136, T -0.166, E -0.273, H -0.35, G -0.481, Q -0.124, P -0.53, R -0.104, W -0.649, S -0.125, F -0.082, N -0.445, V -0.045
D11: G -0.479, L -0.153, K 0.083, M -0.154, E 0.091, Q 0.092, H -0.182, F -0.045, R -0.134, N -0.004, T -0.048, P -1.08, S -0.021, I -0.083, A -0.017, Y -0.086
L12: Y -1.06, E -0.477, W -0.951, D -0.469, F -0.737, G -0.57, K -0.658, T -0.636, Q -0.594, I -0.364, R -0.715, P -0.644, H -0.573, M -0.119, S -0.616, V -0.562, A -0.607
A15: S -0.309, I -0.238, D -0.358, C -0.287, K -0.046, G -0.492, L -0.003, F -0.3, Y -0.181, N -0.309, V -0.429, P -0.954, W -0.442, R 0.022, H -0.36, M 0.103, E -0.308, Q 0.042
E3: S -0.332, W -0.116, F -0.18, C -0.855, N -0.119, P -0.079, H -0.148, I -0.529, Y -0.2, D -0.099, R -0.202, A -0.223, L -0.326, V -0.802, K -0.042, G -0.117, Q -0.138, T -0.126
N5: L -0.878, P -0.637, Y -0.964, I -0.82, V -0.716, G -0.653, K -0.638, M -0.951, W -0.828, H -0.211, T -0.628, Q -0.528, E -0.442, F -1.21, D -0.028
F17: S -0.495, I -0.399, C -0.488, R -0.648, E -0.272, V -0.501, N -0.116, K -0.648, W -0.198, L -0.342, A -0.449, M -0.336, P -0.601, T -0.609, G -0.465, Q -0.366
D20: S -0.063, H -0.234, G -0.081, R -0.142, Y -0.535, V -0.261, M -0.168, W -0.268, N -0.06, E 0.007, K 0, P -0.166, A -0.047, I -0.384, T -0.059, Q -0.07, C -0.208, L -0.288
Q10: F -0.247, N -0.105, M -0.128, A 0.015, V -0.253, S -0.07, D -0.12, P -1, L -0.173, T -0.195, R 0.012, W -0.295, H 0.019, E -0.077, I -0.267, K 0.013, G -0.231, C -0.225
G16: L -0.898, M -0.962, P -0.687, Q -0.953, I -1.34, K -1.03, A -0.725, N -0.494, V -1.11, S -0.88, R -1.1, E -0.617, T -0.72, C -0.914, H -0.275, D -0.5
V4: W -0.561, R -0.515, L -0.367, D -0.344, G -0.388, P -0.057, C -0.277, N -0.204, Y -0.272, I -0.15, F -0.357, S -0.444, T -0.218, M -0.453, H -0.262, E -0.402
S2: L -0.219, I -0.035, Y -0.231, R -0.054, V -0.311, N -0.057, W -0.174, Q -0.035, M -0.143, K 0.021, T 0.075
Q13: R 0.059, D -0.538, S -0.127, W -0.851, V 0.067, H -0.42, C 0.037, I 0.071, T -0.002, M 0.046, F -0.536, L 0.104, E -0.18, K 0.084, A -0.131, Y -0.53
Q7: V -0.147, M -0.178, Y -0.345, C -0.354, T -0.079, N -0.227, G -0.157, R -0.129, S -0.149, L -0.296, K 0.009, D -0.111, F -0.549, E -0.036, P -0.796, I -0.223
A14: T -0.206, D 0.04, Y -0.339, P -0.898, Q -0.132, C -0.325, R -0.095, F -0.455, E 0.039, M -0.151, G -0.19, L -0.188, W -0.706, K 0.007, S -0.047, V -0.308
